Patent US20080213187A1, “NOVEL CASCADE POLYMER COMPLEXES, PROCESSES FOR THEIR PREPARATION AND PHARMACEUTICAL COMPOSITIONS COMPRISING THEM” (priority 2007, published 2008)

Key:
[1] = Plasma kinetics after intravenous administration to rats; type: in vivo; settings: for Plasma levels (as % of the dose): i.v. 50 μmol total Gd/kg, ICP-AES
Description: Plasma Kinetics of the Compounds 2e and 4e After Intravenous Administration to Rats
The title substances from Examples 2e and 4e, and for comparison the title substance from Example 1 of EP 0 836 485, were administered intravenously to rats in a dose of 50 μmol of total gadolinium/kg of body weight. Blood samples were then taken through a catheter in the common carotid artery at various times (1, 3, 5, 10, 15, 30, 60, 90, 120, 240, 360 min, and 24 h p.i.), and the metal content was determined by atomic emission spectroscopy (ICP-AES) and converted into plasma levels using a conversion factor (0.625). The kinetic data were calculated (software: WinNonlin) from the plasma concentrations (Tab. 1, 2).

[2] = rats; cited from earlier work
[3] = rats, cited from earlier work
[4] = intravenous, 50 μmol of total gadolinium/kg, calculated with WinNonlin from plasma concentrations

Compound | Plasma levels (as % of the dose) ([1]; 1 min p.i.) | Plasma levels (as % of the dose) ([1]; 3 min p.i.) | Plasma levels (as % of the dose) ([1]; 5 min p.i.) | Plasma levels (as % of the dose) ([1]; 10 min p.i.) | Plasma levels (as % of the dose) ([1]; 15 min p.i.) | Plasma levels (as % of the dose) ([1]; 30 min p.i.) | Plasma levels (as % of the dose) ([1]; 60 min p.i.) | Plasma levels (as % of the dose) ([1]; 90 min p.i.) | Plasma levels (as % of the dose) ([1]; 120 min p.i.) | Plasma levels (as % of the dose) ([1]; 240 min p.i.) | Plasma levels (as % of the dose) ([1]; 360 min p.i.) | Plasma levels (as % of the dose) ([1]; 1440 min p.i.) | excretion behaviour [2] | Half-life α phase [1, 4] | Half-life β phase [1, 4] | Volume of distribution Vd ss [1, 4] | accumulation in liver tissue ([3]; 24 hours after intravenous injection) | dose eliminated ([3]; in 24 hours)
CC(C(=O)NCC(=O)NCCCC[C@H](NC(=O)CNC(=O)C(C)N1CCN(CC(=O)O)CCN(CC(=O)O)CCN(CC(=O)O)CC1)C(=O)NCCCC[C@H](NC(=O)[C@H](CCCCNC(=O)CNC(=O)C(C)N1CCN(CC(=O)O)CCN(CC(=O)O)CCN(CC(=O)O)CC1)NC(=O)CNC(=O)C(C)N1CCN(CC(=O)O)CCN(CC(=O)O)CCN(CC(=O)O)CC1)C(=O)NCCN(CCNC(=O)[C@H](CCCCNC(=O)[C@H](CCCCNC(=O)CNC(=O)C(C)N1CCN(CC(=O)O)CCN(CC(=O)O)CCN(CC(=O)O)CC1)NC(=O)CNC(=O)C(C)N1CCN(CC(=O)O)CCN(CC(=O)O)CCN(CC(=O)O)CC1)NC(=O)[C@H](CCCCNC(=O)CNC(=O)C(C)N1CCN(CC(=O)O)CCN(CC(=O)O)CCN(CC(=O)O)CC1)NC(=O)CNC(=O)C(C)N1CCN(CC(=O)O)CCN(CC(=O)O)CCN(CC(=O)O)CC1)C(=O)c1cc(C(=O)N(CCNC(=O)[C@H](CCCCNC(=O)[C@H](CCCCNC(=O)CNC(=O)C(C)N2CCN(CC(=O)O)CCN(CC(=O)O)CCN(CC(=O)O)CC2)NC(=O)CNC(=O)C(C)N2CCN(CC(=O)O)CCN(CC(=O)O)CCN(CC(=O)O)CC2)NC(=O)[C@H](CCCCNC(=O)CNC(=O)C(C)N2CCN(CC(=O)O)CCN(CC(=O)O)CCN(CC(=O)O)CC2)NC(=O)CNC(=O)C(C)N2CCN(CC(=O)O)CCN(CC(=O)O)CCN(CC(=O)O)CC2)CCNC(=O)[C@H](CCCCNC(=O)[C@H](CCCCNC(=O)CNC(=O)C(C)N2CCN(CC(=O)O)CCN(CC(=O)O)CCN(CC(=O)O)CC2)NC(=O)CNC(=O)C(C)N2CCN(CC(=O)O)CCN(CC(=O)O)CCN(CC(=O)O)CC2)NC(=O)[C@H](CCCCNC(=O)CNC(=O)C(C)N2CCN(CC(=O)O)CCN(CC(=O)O)CCN(CC(=O)O)CC2)NC(=O)CNC(=O)C(C)N2CCN(CC(=O)O)CCN(CC(=O)O)CCN(CC(=O)O)CC2)cc(C(=O)N(CCNC(=O)[C@H](CCCCNC(=O)[C@H](CCCCNC(=O)CNC(=O)C(C)N2CCN(CC(=O)O)CCN(CC(=O)O)CCN(CC(=O)O)CC2)NC(=O)CNC(=O)C(C)N2CCN(CC(=O)O)CCN(CC(=O)O)CCN(CC(=O)O)CC2)NC(=O)[C@H](CCCCNC(=O)CNC(=O)C(C)N2CCN(CC(=O)O)CCN(CC(=O)O)CCN(CC(=O)O)CC2)NC(=O)CNC(=O)C(C)N2CCN(CC(=O)O)CCN(CC(=O)O)CCN(CC(=O)O)CC2)CCNC(=O)[C@H](CCCCNC(=O)[C@H](CCCCNC(=O)CNC(=O)C(C)N2CCN(CC(=O)O)CCN(CC(=O)O)CCN(CC(=O)O)CC2)NC(=O)CNC(=O)C(C)N2CCN(CC(=O)O)CCN(CC(=O)O)CCN(CC(=O)O)CC2)NC(=O)[C@H](CCCCNC(=O)CNC(=O)C(C)N2CCN(CC(=O)O)CCN(CC(=O)O)CCN(CC(=O)O)CC2)NC(=O)CNC(=O)C(C)N2CCN(CC(=O)O)CCN(CC(=O)O)CCN(CC(=O)O)CC2)c1)N1CCN(CC(=O)O)CCN(CC(=O)O)CCN(CC(=O)O)CC1 (stereo partly drawn) [Example No. 1 from EP 0 836 485] | 75.0% | 39.2% | 25.0% | 6.9% | 4.0% | 1.5% | 1.0% | 0.9% | 0.7% | 0.4% | 0.4% | 0.0% |  |  |  |  |  | 
polylysine-GdDTPA |  |  |  |  |  |  |  |  |  |  |  |  | excreted unchanged by glomerular filtration via the kidney |  |  |  |  | 
Octa-Gd complex amide from the Gd complex of 10-(4-carboxy-1-methyl-2-oxo-3-azabutyl)-1,4,7,10-tetraazacyclododecane-1,4,7-triacetic acid with dendritic octaamine 4d [Example 4e] | 65.9% | 44.2% | 30.0% | 17.5% | 13.5% | 8.3% | 4.5% | 2.7% | 1.6% | 0.3% | 0.0% | 0.0% |  | 3.3 min | 42.0 min | 0.20 L/kg |  | 
albumin-GdDTPA |  |  |  |  |  |  |  |  |  |  |  |  |  |  |  |  | ~30 % of the dose | 20 % of the dose
